Test results: PMC9124243 (Cell chemical biology, 2021)

B1: Mycobacterium tuberculosis GrpE (natural protein)
chain: MTDGNQKPDGNSGEQVTVTDKRRIDPETGEVRHVPPGDMPGGTAAADAAHTEDKVAELTADLQRVQADFANYRKRALRDQQAAADRAKASVVSQLLGVLDDLERARKHGDLESGPLKSVADKLDSALTGLGLVAFGAEGEDFDPVLHEAVQHEGDGGQGSKPVIGTVMRQGYQLGEQVLRHALVGVVDTVVVDAAELESVDDGTAVADTAENDQADQGNSADTSGEQAESEPSGS
B2: Mycobacterium tuberculosis DnaK T175A (catalytically dead mutant), full-length (natural protein)
chain: not shown

What was measured:
[1] = target: B2; test: native gel or EMSA
[2] = target: the molecule itself; test: native gel or EMSA

Binder: B1
- binding result [1]: binds

Binder: B2
- binding result [2]: binds
